Experimental data published in patent US20030073111.

B1: IKKα-ΔLH (protein)
chain: MERPPGLRPGAGGPWEMRERLGTGGFGNVSLYQHRELDLKIAIKSCRLELSSKNRERWCHEIQIMKKLDHANVVKACDVPEELNFLINDVPLLAMEYCSGGDLRKLLNKPENCCGLKESQILSLLSDIGSGIRYLHENKIIHRDLKPENIVLQDVGGKTIHKIIDLGYAKDVDQGSLCTSFVGTLQYLAPELFENKPYTATVDYWSFGTMVFECIAGYRPFLHHLQPFTWHEKIKKKDPKCIFACEEMTGEVRFSSHLPQPNSLCSLIVEPMESWLQLMLNWDPQQRGGPIDLTLKQPRCFALMDHILNLKIVHILNMTSAKIISFLLPCDESLHSLQSRIERETGINTGSQELLSETGISLDPRKPASQCVLDGVRGCDSYMVYLFDKSKTVYEGPFASRSLSDCVNYIVQDSKIQLPIIQLRKVWAEAVHYVSGLKEDYSRLFQGQRAAIFRKNVKSMERNGRKGHSLF
B2: IKKα/CHUK (protein)
chain: MERPPGLRPGAGGPWEMRERLGTGGFGNVSLYQHRELDLKIAIKSCRLELSSKNRERWCHEIQIMKKLDHANVVKACDVPEELNFLINDVPLLAMEYCSGGDLRKLLNKPENCCGLKESQILSLLSDIGSGIRYLHENKIIHRDLKPENIVLQDVGGKTIHKIIDLGYAKDVDQGSLCTSFVGTLQYLAPELFENKPYTATVDYWSFGTMVFECIAGYRPFLHHLQPFTWHEKIKKKDPKCIFACEEMTGEVRFSSHLPQPNSLCSLIVEPMESWLQLMLNWDPQQRGGPIDLTLKQPRCFALMDHILNLKIVHILNMTSAKIISFLLPCDESLHSLQSRIERETGINTGSQELLSETGISLDPRKPASQCVLDGVRGCDSYMVYLFDKSKTVYEGPFASRSLSDCVNYIVQDSKIQLPIIQLRKVWAEAVHYVSGLKEDYSRLFQGQRAAMLSLLRYNANLTKMKNTLISASQQLKAKLEFFRKSIQLDLERYSEQMTYGISSEKMLKAWKEMEEKAIHYSEVGVIGYLEDQIMSLHTEIMELQKSPYGRRQGDLMESLEQRAIDLYKQLKHRPPDHLYSDSTEMVKIIVHTVQSQDRVLKELFGHLSKLLGCKQKIIDLLPKVEVALSNIKEADNTVMFMQGKRQKEIWHLLKIACTQSSARSLVGSSLEGTVTPPVSAWLPPTLADREHPLTCVVTPQDGETLAQMIEENLNCLGHLSTIIREANEDQSSSLMSLDWSWLAE
B3: IKKα-ΔCm (protein)
chain: MERPPGLRPGAGGPWEMRERLGTGGFGNVSLYQHRELDLKIAIKSCRLELSSKNRERWCHEIQIMKKLDHANVVKACDVPEELNFLINDVPLLAMEYCSGGDLRKLLNKPENCCGLKESQILSLLSDIGSGIRYLHENKIIHRDLKPENIVLQDVGGKTIHKIIDLGYAKDVDQGSLCTSFVGTLQYLAPELFENKPYTATVDYWSFGTMVFECIAGYRPFLHHLQPFTWHEKIKKKDPKCIFACEEMTGEVRFSSHLPQPNSLCSLIVEPMESWLQLMLNWDPQQRGGPIDLTLKQPRCFALMDHILNLKIVHILNMTSAKIISFLLPCDESLHSLQSRIERETGINTGSQELLSETGISLDPRKPASQCVLDGVRGCDSYMVYLFDKSKTVYEGPFASRSLSDCVNYIVQDSKIQLPIIQLRKVWAEAVHYVSGLKEDYSRLFQGQRAA

Target: GST-IκBα (1-62)

Protein	immunoprecipitatable kinase activity towards GST-IκBα(1-62)
B1	TNF-α stimulation of HEK293 cells transfected with each IKKα/CHUK isoform resulted in an increase in immunoprecipitatable kinase activity towards GST-IκBα(1-62)
B2	TNF-α stimulation of HEK293 cells transfected with each IKKα/CHUK isoform resulted in an increase in immunoprecipitatable kinase activity towards GST-IκBα(1-62)
B3	TNF-α stimulation of HEK293 cells transfected with each IKKα/CHUK isoform resulted in an increase in immunoprecipitatable kinase activity towards GST-IκBα(1-62)
